Results published in PMC4117571.

Tested on: hnRNP A1 (endogenous) ((SF268 cells))
Assay: pull-down, competition, immunoblot
Settings: biotin-16-UTP incorporated; 5 mM HEPES pH 7.1, 40 mM KCl, 0.1 mM EDTA, 2 mM MgCl2, 2 mM DTT, RNasin, 0.25 mg/ml heparin; 200 ug SF268 extract, 3 ug RNA, 100 ul; 15 min 30 C, then beads …

| Substance | binding signal (% reduction of bound hnRNP A1) |
| --- | --- |
| EV71 5'UTR | 73 |
| EV71 SL-II | 80 |
